125 sequences from the supplement of paper PMC9112550, “Optimization of the antimicrobial peptide Bac7 by deep mutational scanning” (BMC Biology, 2022) can be followed below.

The series has as its system Escherichia coli TOP10. Put plainly: shrunken log2 fold change of peptide-encoding DNA abundance (4.5 h post-induction vs induction); higher = less antimicrobial activity (less host growth inhibition). The settings on record: time post-induction: 4.5 h; library: site-saturation at positions 5, 18, 19, 20.
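Also: peptides expressed intracellularly from a pBAD plasmid library in pooled LB shake-flask culture, induced with 0.3% L-arabinose, DNA abundance read by NGS, three biological replicates, DESeq2 with apeglm shrinkage.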

RRIRERPPRLPRPRPRPEGCPRP: the “shrunken log2 fold change” value is -0.318. The same measure for RRIRMRPPRLPRPRPRPDSDPRP: 2.6; for RRIRLRPPRLPRPRPRPVQTPRP: 0.102; for RRIRSRPPRLPRPRPRPYIVPRP: -0.646. Under RRIRVRPPRLPRPRPRPPQFPRP stands 0.146; under RRIRPRPPRLPRPRPRPRDTPRP, -0.0427; under RRIRYRPPRLPRPRPRPNICPRP, -0.204. The same measure for RRIRERPPRLPRPRPRPLQHPRP: 0.159.

RRIRLRPPRLPRPRPRPNADPRP: the “shrunken log2 fold change” value is 0.126. The same measure for RRIRGRPPRLPRPRPRPRYCPRP: 0.295. The same measure for RRIRRRPPRLPRPRPRPAMIPRP: 0.0243. The same measure for RRIRTRPPRLPRPRPRPIRRPRP: 0.0581; for RRIRGRPPRLPRPRPRPCNQPRP: -0.174; for RRIRARPPRLPRPRPRPSFLPRP: -0.338. With RRIRYRPPRLPRPRPRPFMGPRP, the “shrunken log2 fold change” value was -0.316. On to RRIRERPPRLPRPRPRPMLDPRP, for which the “shrunken log2 fold change” value stood at 0.0349. Under RRIRMRPPRLPRPRPRPCYFPRP stands -0.289; under RRIRRRPPRLPRPRPRPYLLPRP, -0.263; under RRIRRRPPRLPRPRPRPHTQPRP, 0.573. Regarding RRIRMRPPRLPRPRPRPGDMPRP, the “shrunken log2 fold change” value is 0.484. Under RRIRVRPPRLPRPRPRPFPHPRP stands -0.366; under RRIRWRPPRLPRPRPRPAKFPRP, 0.0295. The same measure for RRIRDRPPRLPRPRPRPYKRPRP: 0.000522; for RRIRQRPPRLPRPRPRPSMAPRP: -0.135.

For the sequence RRIRVRPPRLPRPRPRPEINPRP, the “shrunken log2 fold change” value was -0.00259. The same measure for RRIRARPPRLPRPRPRPPISPRP: 0.027; for RRIRWRPPRLPRPRPRPEKGPRP: 0.0282; for RRIRFRPPRLPRPRPRPIAWPRP: -0.0725. Turning to RRIRRRPPRLPRPRPRPQVQPRP, the “shrunken log2 fold change” value was 0.0152. Under RRIRHRPPRLPRPRPRPCCHPRP stands -0.707; under RRIRLRPPRLPRPRPRPASYPRP, -0.308.

RRIRMRPPRLPRPRPRPIYFPRP: the “shrunken log2 fold change” value is -0.141. In the case of RRIRCRPPRLPRPRPRPHRTPRP, the “shrunken log2 fold change” value was -0.209. Under RRIRKRPPRLPRPRPRPFKHPRP stands -0.0024. The same measure for RRIRQRPPRLPRPRPRPVQNPRP: 0.0137; for RRIRTRPPRLPRPRPRPYGPPRP: -0.406; for RRIRSRPPRLPRPRPRPSHCPRP: 0.079. The same measure for RRIRFRPPRLPRPRPRPYWPPRP: -0.336. In the case of RRIRTRPPRLPRPRPRPTDKPRP, the “shrunken log2 fold change” value was -0.55. Under RRIRYRPPRLPRPRPRPAWTPRP stands -0.156. Under RRIRQRPPRLPRPRPRPKLNPRP stands -0.165; under RRIRDRPPRLPRPRPRPRCRPRP, -0.0929; under RRIRQRPPRLPRPRPRPAKFPRP, -0.103. Under RRIRHRPPRLPRPRPRPNTRPRP stands -0.28; under RRIRDRPPRLPRPRPRPGNYPRP, -0.0159; under RRIRHRPPRLPRPRPRPLVNPRP, -0.117. With RRIRQRPPRLPRPRPRPTLCPRP, the “shrunken log2 fold change” value amounted to 0.00185. The same measure for RRIRCRPPRLPRPRPRPKTVPRP: -0.109; for RRIRFRPPRLPRPRPRPMWLPRP: 0.0605; for RRIRTRPPRLPRPRPRPACYPRP: -0.0845. Under RRIRNRPPRLPRPRPRPMMIPRP stands -0.0237; under RRIRWRPPRLPRPRPRPMLSPRP, -0.0162; under RRIRMRPPRLPRPRPRPCHLPRP, -0.0745. The same measure for RRIRNRPPRLPRPRPRPRTQPRP: 0.11; for RRIRMRPPRLPRPRPRPDTRPRP: -0.0141; for RRIRLRPPRLPRPRPRPSVCPRP: 0.0879.

For RRIRARPPRLPRPRPRPADIPRP, the “shrunken log2 fold change” value is -0.245.

In the case of RRIRFRPPRLPRPRPRPAPSPRP, the “shrunken log2 fold change” value is 0.607. Under RRIRERPPRLPRPRPRPQTMPRP stands -0.157; under RRIRHRPPRLPRPRPRPGCLPRP, -0.278; under RRIRGRPPRLPRPRPRPEPFPRP, 0.218. The same measure for RRIRHRPPRLPRPRPRPMAGPRP: -0.0581.

Turning to RRIRYRPPRLPRPRPRPNKIPRP, the “shrunken log2 fold change” value was -0.995.

Turning to RRIRMRPPRLPRPRPRPVVIPRP, the “shrunken log2 fold change” value was -0.174. Regarding RRIRTRPPRLPRPRPRPQMMPRP, the “shrunken log2 fold change” value is -0.0792. Under RRIRYRPPRLPRPRPRPERQPRP stands -0.01; under RRIRERPPRLPRPRPRPSCEPRP, -0.668; under RRIRFRPPRLPRPRPRPTHAPRP, 0.207. As to RRIRGRPPRLPRPRPRPFRGPRP, the “shrunken log2 fold change” value was -0.0655. The same measure for RRIRPRPPRLPRPRPRPDKCPRP: -0.432; for RRIRCRPPRLPRPRPRPTKTPRP: 0.137; for RRIRDRPPRLPRPRPRPLESPRP: 0.258.

On to RRIRNRPPRLPRPRPRPKSAPRP, for which the “shrunken log2 fold change” value was 0.265. Regarding RRIRERPPRLPRPRPRPPQAPRP, the “shrunken log2 fold change” value came to 0.154.

For the sequence RRIRLRPPRLPRPRPRPGPIPRP, the “shrunken log2 fold change” value worked out at 0.195. Under RRIRRRPPRLPRPRPRPDHYPRP stands -2.95; under RRIRGRPPRLPRPRPRPWDYPRP, 0.183. Under RRIRPRPPRLPRPRPRPKLAPRP stands 0.405; under RRIRHRPPRLPRPRPRPIGEPRP, -0.00286; under RRIRLRPPRLPRPRPRPEFSPRP, -0.013.

Consider RRIRERPPRLPRPRPRPKIRPRP, for which the “shrunken log2 fold change” value was -0.121. Under RRIRRRPPRLPRPRPRPRPVPRP stands 0.882; under RRIRVRPPRLPRPRPRPDFHPRP, -0.208. The same measure for RRIRYRPPRLPRPRPRPRMEPRP: -0.0654; for RRIRQRPPRLPRPRPRPTFMPRP: -0.552. The same measure for RRIRFRPPRLPRPRPRPDAIPRP: 0.041. In the case of RRIRARPPRLPRPRPRPTSKPRP, the “shrunken log2 fold change” value is 0.236. For RRIRRRPPRLPRPRPRPSGVPRP, the “shrunken log2 fold change” value is -0.181. Under RRIRARPPRLPRPRPRPPTSPRP stands 0.525.

For RRIRRRPPRLPRPRPRPMTCPRP, the “shrunken log2 fold change” value came to 0.129. The same measure for RRIRERPPRLPRPRPRPWTGPRP: -0.00968. The same measure for RRIRWRPPRLPRPRPRPEHNPRP: 0.147; for RRIRTRPPRLPRPRPRPPSFPRP: 0.264; for RRIRYRPPRLPRPRPRPGDAPRP: 0.0773.

With RRIRNRPPRLPRPRPRPANRPRP, the “shrunken log2 fold change” value is -0.029.

For RRIRNRPPRLPRPRPRPSIWPRP, the “shrunken log2 fold change” value is -0.474. Under RRIRTRPPRLPRPRPRPVKCPRP stands -0.0123; under RRIRHRPPRLPRPRPRPKAAPRP, 0.0902; under RRIRVRPPRLPRPRPRPSMMPRP, -0.888. Under RRIRWRPPRLPRPRPRPESRPRP stands 0.323; under RRIRIRPPRLPRPRPRPLMHPRP, -0.384; under RRIRYRPPRLPRPRPRPKTRPRP, -0.142. Under RRIRPRPPRLPRPRPRPQPLPRP stands 0.16. Consider RRIRFRPPRLPRPRPRPFHTPRP, for which the “shrunken log2 fold change” value is -0.561. As to RRIRMRPPRLPRPRPRPFCWPRP, the “shrunken log2 fold change” value came out at 0.421. The same measure for RRIRSRPPRLPRPRPRPWEPPRP: -0.029; for RRIRSRPPRLPRPRPRPADHPRP: -0.166.

With RRIRMRPPRLPRPRPRPNCCPRP, the “shrunken log2 fold change” value was -0.0306.

For the sequence RRIRWRPPRLPRPRPRPDWCPRP, the “shrunken log2 fold change” value was determined as 0.112. In the case of RRIRVRPPRLPRPRPRPKCGPRP, the “shrunken log2 fold change” value worked out at 0.0731. As for RRIRVRPPRLPRPRPRPENKPRP, the “shrunken log2 fold change” value is -0.134.

In the case of RRIRERPPRLPRPRPRPGAAPRP, the “shrunken log2 fold change” value turned out to be 1.82. The same measure for RRIRQRPPRLPRPRPRPFHQPRP: -0.00804; for RRIRDRPPRLPRPRPRPPRRPRP: 0.635; for RRIRVRPPRLPRPRPRPYSSPRP: -0.644.

Consider RRIRSRPPRLPRPRPRPCCAPRP, for which the “shrunken log2 fold change” value is 0.115.

Regarding RRIRNRPPRLPRPRPRPYFHPRP, the “shrunken log2 fold change” value was -0.474. The same measure for RRIRGRPPRLPRPRPRPIHEPRP: -0.135; for RRIRQRPPRLPRPRPRPINGPRP: -0.000925; for RRIRFRPPRLPRPRPRPLIAPRP: -0.234. For the sequence RRIRCRPPRLPRPRPRPARQPRP, the “shrunken log2 fold change” value stood at 0.0993. The same measure for RRIRGRPPRLPRPRPRPDVLPRP: 0.246; for RRIRLRPPRLPRPRPRPGQVPRP: 0.318. Turning to RRIRDRPPRLPRPRPRPVDPPRP, the “shrunken log2 fold change” value came out at 0.0517. RRIRCRPPRLPRPRPRPAYCPRP: the “shrunken log2 fold change” value is -0.363.
